Data from patent publication US20040048327A1.
Numbered stars: 1 amine (or outer) side, 2 acyl side, 3 side chain; on linkers, the order of the positions; unused ones are H or OH. Square brackets hold non-standard residues; d marks the D form. * marks the point of attachment. AAsp = aza-Asp, O=C(N(CC(=O)[*:3])N[*:1])[*:2]; Cbz = O=C(OCc1ccccc1)*; NHBn = c1ccc(CN*)cc1

T1: caspase-3 (UniProt P42574)
T1 sequence (looked up): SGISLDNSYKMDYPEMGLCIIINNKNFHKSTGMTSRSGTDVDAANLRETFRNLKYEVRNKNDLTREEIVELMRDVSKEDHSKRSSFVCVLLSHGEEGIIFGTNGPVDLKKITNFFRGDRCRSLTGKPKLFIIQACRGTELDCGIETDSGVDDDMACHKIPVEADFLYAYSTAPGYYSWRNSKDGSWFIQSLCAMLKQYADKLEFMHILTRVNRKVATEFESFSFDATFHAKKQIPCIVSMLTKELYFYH

T2: caspase-6 (UniProt P55212)
T2 sequence (looked up): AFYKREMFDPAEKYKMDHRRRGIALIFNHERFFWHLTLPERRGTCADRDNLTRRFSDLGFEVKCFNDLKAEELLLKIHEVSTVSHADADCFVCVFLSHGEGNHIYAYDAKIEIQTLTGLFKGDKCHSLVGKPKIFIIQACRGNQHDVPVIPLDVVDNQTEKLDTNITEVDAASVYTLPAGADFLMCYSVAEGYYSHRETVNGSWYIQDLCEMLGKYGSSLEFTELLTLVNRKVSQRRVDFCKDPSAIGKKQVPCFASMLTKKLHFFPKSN


Legend:
Assay in all cases: cell-based or functional assay
caspase-3 = biological target: T1, caspase-3
[1] = biological target: autolytically stable caspase-1 variant (D381 E) (UniProt P29466)
Sequence of autolytically stable caspase-1 variant (D381 E) (P29466 other isoform, or with tags, fused parts or gaps mutant limits assumed): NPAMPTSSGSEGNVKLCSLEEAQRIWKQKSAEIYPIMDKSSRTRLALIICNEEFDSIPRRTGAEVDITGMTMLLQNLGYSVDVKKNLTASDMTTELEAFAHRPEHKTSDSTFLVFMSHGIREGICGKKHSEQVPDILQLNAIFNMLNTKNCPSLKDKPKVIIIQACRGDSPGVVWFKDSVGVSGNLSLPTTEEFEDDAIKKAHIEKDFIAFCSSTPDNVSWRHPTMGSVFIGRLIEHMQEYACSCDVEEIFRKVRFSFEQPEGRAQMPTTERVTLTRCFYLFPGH

caspase-6 = biological target: T2, caspase-6

| k2 (caspase-3) | k2 [1] | k2 (caspase-6) | Binder |
| --- | --- | --- | --- |
| 3520 M⁻¹ s⁻¹ | 43500 M⁻¹ s⁻¹ | – | Cbz-LET[AAsp]-{(S,S)‑EP‑COOCH2Ph} [Cbz-Leu-Glu-Thr-AAsp-(S,S)-EP-COOCH2Ph] |
| 2640 M⁻¹ s⁻¹ | – | 9680 M⁻¹ s⁻¹ | Cbz-LET[AAsp]-{(2S,3S)‑EP‑CON(CH3)CH2Ph} [Cbz-Leu-Glu-Thr-AAsp-(2S,3S)-EP-CON(CH3)CH2Ph] |
| 2550 M⁻¹ s⁻¹ | – | – | Cbz-LET[AAsp]-{(S,S)‑EP‑CONHCH2CH2Ph} [Cbz-Leu-Glu-Thr-AAsp-(S,S)-EP-CONHCH2CH2Ph] |

The next lines start with the binder.

| Binder | k2 (caspase-3) | k2 [1] | k2 (caspase-6) |
| --- | --- | --- | --- |
| Cbz-LET[AAsp]-{(S,S)‑EP‑CO-Ala-NHBn} [Cbz-Leu-Glu-Thr-AAsp-(S,S)-EP-CO-Ala-NHCH2Ph] | 1280 M⁻¹ s⁻¹ | – | – |
| Cbz-LET[AAsp]-{(2S,3S)‑EP‑COOEt} [Cbz-Leu-Glu-Thr-AAsp-(2S, 3S)-EP-COOEt] | 3210 M⁻¹ s⁻¹ | 25700 M⁻¹ s⁻¹ | – |
| Cbz-LET[AAsp]-{(2R,3R)‑EP‑COOEt} [Cbz-Leu-Glu-Thr-AAsp-(2R, 3R)-EP-COOEt] | 3250 M⁻¹ s⁻¹ | 19600 M⁻¹ s⁻¹ | – |
| Cbz-LET[AAsp]-{(2S,3S)‑EP‑CON(CH2Ph)2} [Cbz-Leu-Glu-Thr-AAsp-(2S,3S)-EP-CON(CH2Ph)2] | 2750 M⁻¹ s⁻¹ | – | 13800 M⁻¹ s⁻¹ |
